According to paper doi:10.1101/607101 (bioRxiv, 2019):

Target: the molecule itself
Assay: crystal structure

B1: Kitasatospora setae enoyl-CoA carboxylase/reductase (ECR), wild type (enzyme)
chain: MQEILDAILSGDAASADYAALALPESYRAVTLHKGEERMFDGLASRDKDPRKSLHLDDVPLPELGPGEALVAVMASSVNYNTVWSSIFEPVSTFGFLERYGRLSPLTARHDLPYHVLGSDLAGVVLRTGAGVNAWKPGDEVVAHCLSVELESPDGHNDTMMDPEQRIWGFETNFGGLAQLALVKTNQLLPKPKHLTWEEAASPGLVNSTAYRQLVSRNGAGLKQGDNVLIWGASGGLGSYATQYALAGGATPICVVSSPRKADICRAMGAEAIIDRSAEGYRFWKDEHHQDPREWKRLGGKIREFTGGEDVDIVFEHPGRETFGASVYVTRKGGTIVTCASTSGYMHQYDNRYLWMSLKRIVGSHFANYREAFEANRLVAKGKIHPTLSKVYALEETGQAALDVHHNKHQGKVGVLCLAPREGLGVTDPELRSKHLTKINAFRNV
stoichiometry N: 4
